Publication PMC5267338

Columns and labels:
[1] = biological target: human mitochondrial ferredoxin 2 (FDX2), holo form with [2Fe-2S] cluster (H. sapiens) (UniProt Q6P4F2); assay: ITC
[2] = biological target: human mitochondrial ferredoxin 1 (FDX1), holo form with [2Fe-2S] cluster (H. sapiens); assay: ITC

Chain of human mitochondrial ferredoxin 2 (FDX2), holo form with [2Fe-2S] cluster (H. sapiens) (Q6P4F2 53-183): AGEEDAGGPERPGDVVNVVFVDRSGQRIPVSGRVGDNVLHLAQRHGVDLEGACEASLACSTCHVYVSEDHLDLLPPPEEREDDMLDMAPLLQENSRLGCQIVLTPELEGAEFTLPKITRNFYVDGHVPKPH
Chain of [Acp]2:[ISD11]2:[NFS1]2 complex (cysteine desulfurase complex) (Q9Y697 53-457): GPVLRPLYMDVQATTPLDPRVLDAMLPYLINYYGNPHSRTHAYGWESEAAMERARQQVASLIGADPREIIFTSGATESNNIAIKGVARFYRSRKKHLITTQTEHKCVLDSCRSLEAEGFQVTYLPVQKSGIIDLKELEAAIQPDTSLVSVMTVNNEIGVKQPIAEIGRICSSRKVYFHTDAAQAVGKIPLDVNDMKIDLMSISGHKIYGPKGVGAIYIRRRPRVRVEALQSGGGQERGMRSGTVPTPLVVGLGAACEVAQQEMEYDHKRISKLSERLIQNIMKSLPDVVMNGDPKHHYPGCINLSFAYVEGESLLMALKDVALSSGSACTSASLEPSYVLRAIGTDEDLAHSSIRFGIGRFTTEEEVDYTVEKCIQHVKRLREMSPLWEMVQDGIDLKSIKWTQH
Chain of [Acp]2:[ISD11]2:[NFS1]2 complex (cysteine desulfurase complex) (Q9HD34 whole entry): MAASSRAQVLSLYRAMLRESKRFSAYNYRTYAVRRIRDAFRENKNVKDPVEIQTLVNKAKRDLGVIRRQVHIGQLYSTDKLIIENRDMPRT
Chain of [Acp]2:[ISD11]2:[NFS1]2 complex (cysteine desulfurase complex) (P0A6A8 2-78): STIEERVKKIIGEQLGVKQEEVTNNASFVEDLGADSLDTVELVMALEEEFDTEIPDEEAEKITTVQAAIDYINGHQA

Kd [1]: 14.9 µM
Kd [2]: 41.7 µM
Substance: [Acp]2:[ISD11]2:[NFS1]2 complex (cysteine desulfurase complex) (from UniProt Q9Y697 53-457; Q9HD34 1-91; P0A6A8 2-78)
